# Data from a protein production outcome set (Wang et al. 2014).
# Assay: label from the status in PepcDB records
sequence,measurement,value
QEIKRYADEHEERYGRFPKTLIFAVQDLANSSSHADQIVDQARDIFGRGDSFVQKITGKVDRPLQRIREFRNRKEPGIAVTVDLLSTGVDVPDIEYIVFLRSMKSRILFEQMIGRGTRKGEH,protein production,failed
MADTGEVQFMKPFISEKSSKSLEIPLGFNEYFPAPFPITVDLLDYSGRSWTVRMKKRGEKVFLTVGWENFVKDNNLEDGKYLQFIYDRDRTFYVIIYGHNMC,protein production,not failed
MLITVYCVRRDLTEVTFSLQVNPDFELSNFRVLCELESGVPAEEAQIVYMEQLLTDDHCSLGSYGLKDGDMVVLLQKDNVGLRTPGRTP,protein production,not failed
MANRQRGVALIIVLMLLAIMATIAATMSERLFLQFQRGSNQIHYQQAYWYSVGVEALAEVGIEQSYKDSDTINLSQPWAIKEQVYPLDYGQAAGRIWDKQACFNLNVLSRVQPTGQQTTRPYLVQVLQRLLEESDVEPYQAEVIADSTWEYIDSDSTVRSTTGVEDSTYESMKPSYLAANGWMADKTELRAVYQVSGEIYQKIEPLVCAIPSDDWRLNVNTIEVEQAPILVAMFSPNLSSSDAVQLIEKRPFDGWDSVDEFLAESELTGLSDDVKKNAKGYLGVDSSFFELDAQVLVDDSRVRIRSLLQSTNRETVTVVRRRFGGISERVSDRSAE,protein production,failed
MVFFHKKIILNFIYSLMVAFLSHGVLLKADGMAKKQTLLVGERLVWDKLTLLGFLEKNHIPQKLYYNLSSQDKELSAEIQSNVTYYTLRDANNTLIQALIPISQDLQIHIYKKGEDYFLDFIPIIFTRKEKTLLLSLQTSPYQDIIKATNDPLLANQLMNAYKKSVPFKRLVKNDKIAIVYTRDYRVGQAFGQPTIKMAMVSSRSNQYYLFSHSNGHYYDSKAQEVAGFLLETPVKYTRISSPFSYGRFHPVLKVRRPHYGVDYAAKHGSLIHSASDGRVGFMGVKAGYGKVVEIHLNELRLVYAHMSAFANGLKKGSFVKKGQIIGRVGSTGLSTGPHLHFGVYKNSRPINPLGYIRTAKSKLHGKQREVFLEKAQRSKQKLEELLKTHSFEKNSFYLLEGF,protein production,failed
MITNQRIARLNAWGAHGFTATGVVLAFLATIALFNNEPKACLLWLGAALIVDGVDGSLARKVNTTSVLPHFDGSVLDLVIDYLTYVFIPALFIYRYIPVPDYTLLLSVSVILVSSLFCFCNVDMKSKDNYFQGFPAAWNVVALCLYILSPAPWLTFITIIALALLTMTRMKFLHPFRVRRFMPLNIAVTTVWLLASALLIINHPHNGPLVMGLWLAMSAYFLGICIWRTSLEWLGRLKA,protein production,failed
MLSIKQLSYALAVSKTLHFRKAADLCHVRQSTLSTGVSELERQLGIKIFERDNKKVLVTPLGREVLDKASNIMLQLEDMAHLDHSCGEP,protein production,failed
MAAGTDSTGTFATRHSANECLQLQERLWLLEQIAGSASRTALRTTVARGNECRLASCIDLNPEGRPILPSCSALGRAGAAARCCAGRRGRSRARARPAGQTGGGSRVAAECRHISHRGGRGIPVSGGGGAWRSGGASNGRGVFLRPAGTGGSRLATGARQANLGCGPRPACPPAMDQDYERRLLRQIIIQNENTVPCVSEMRRTLTPANSPVSSPSKHGDRFIPSRAGANWSVNFHRINENEKSPSQNRKAKDATSDNGKDGLAYSALLKNELLGAGIEKVQDPQTEDRRLQPSTPEHKGLFTYSLSSKRSSPDDGNDVSPYSLSPVSNKSQKLLRSPRKPTRKISKIPFKVLDAPELQDDFYLNLVDWSSLNVLSVGLGTCVYLWSACTSQVTRLCDLSVEGDSVTSVGWSERGNLVAVGTHKGFVQIWDAAAGKKLSVLEGHTARVGALAWNADQLSSGSRDRMILQRDIRTPALQSERRLQGHRQEVCGLKWSTDHQLLASGGNDNKLLVWNHSSLSPVQQYTEHLAAVKAIAWSPHQHGLLASGGGTADRCIRFWNTLTGQPLQCIDTGSQVCNLAWSKHANELVSTHGYSQNQILVWKYPSLTQVAKLTGHSYRVLYLAMSPDGEAIVTGAGDETLRFWNVFSKTRSTKESVSVLNLFTRIR,protein production,failed
MMSEAIIHGIILAFGLIIPLGVQNVFVFNQGASQPNIWRAAPVVLTASICDTLLILIAVQGVSLVLLTFSWLTNSLYIIGFFFLLYMGFVIWRSNPSNDVKQEKSMPLKKQILFAASVSLLNPHAILDTIGVIGTNSIQYIGSEKWAFTLATIIVSWIWFISLALAGKFLKRLDSTGKTILLLNKFSGLIIWGVALYMLKQVIYS,protein production,failed
MFLKLFSLFLIIPLVEIYLLIKIGGIIGAFNTVLVILITASLGAYLTKSQGFRVFHQIQDATRQGYMPGNELLHGLFVLIGGFALLTPGFLTDAIGFSMLIPQIREIYVGIAKGIIRKKIEQGNFQMRVYTDFR,protein production,failed
MKFRTLLVVNKVVVFAKLLSVLQKVEKTAFLILCSEADEEIRLVTKADAFNGLYTSALLRKSEFFEDYRIESKYHNLIGLEFQLSAFEDAIRASSNAAGVIMKLSKKEQACISFHIQTLTSNIIQDVPVRVITPTQIEELAEPNLPPCSGVVLSPLQKIAILIEKFRHVSQSIQLTLQSTQAAELHIKCHSETLEVETCIKGLKIVTLNSEESSSEIEQSTSASVDGRHLSKAMFAAYLIPQRAFCCKLSILNHGNIHWIH,protein production,failed
PARIDTLEIKLLFAGDIMTHGPQIESAKCEGGRVYDFSSSFDTLASRIGAADLAIGNLETTFAGAPYSGYPTFSSPDAMGEALKNAGFDVLTTANNHTADKGKKGIIRTLDMLDSLGIAHTGSYRDIFDRDKMTPLILEVKGVRIAILAYTYGTNGMPVPAPTWVDPIDTVMIKKDLLRADSLGADYRIVQIHWGIEYRKEPDSEQLELARKLHRYGADAIIGSHPHVV,protein production,failed
SKETIMNQKLTKRQAEVHTGRKGTAHRKKVVHTTAEDKKFQFSLKKLGVNNIPGIEEVNMFTHQGTVIHFNNPEVQASLAANTFTMTGHAETKQLTEMLLSIDHKPVLQMV,protein production,not failed
PDISVAQPASALRYHLRPPRRNDGAAIHQLVSECPPLDLNSLYAYLLLCEHHAHTCVVAESPGGRIDGFVSAYLLPTRPDVLFVWQVAVHSRARGHRLGRAMLGHILERQECRHVRHLETTVGPDNQASRRTFAGLAGERGAHVSEQPFFDRQAFGGADHDDEMLLRIGPFTH,protein production,not failed
MTAYIIVGLTPKDAEKLQQYGARVASTLAKYSGEVLVKGSVEQLHGKFEHKAQVILEFPSREDAYNWYHSEEYQALISTRDLGMDSQFQLIG,protein production,not failed
MSLKTYKGYLIDLDGTMYNGTEKIEEACEFVRTLKDRGVPYLFVTNNSSRTPKQVADKLVSFDIPATEEQVFTTSMATAQHIAQQKKDASVYVIGEEGIRQAIEENGLTFGGENADFVVVGIDRSITYEKFAVGCLAIRNGARFISTNGDIAIPTERGLLPGNGSLTSVLTVSTGVQPVFIGKPESIIMEQAMRVLGTDVSETLMVGDNYATDIMAGINAGMDTLLVHTGVTKREHMTDDMEKPTHAIDSLTEWIPYIEGHHHHHH,protein production,not failed
PIDLITVGSLIELQDSQNPFQYWIVSVIENVGGRLRLRYVGLEDTESYDQWLFYLDYRLRPVGWCQENKYRMDPPSEIYPLKMASEWKCTLEKSLIDAAKFPLPMEVFKDHADL,protein production,not failed
MDLYLDPSILIILIVFGFVAAFIDSVVGGGGLIALPALLFTGLNPASAVATNKLASTMGSATSNIVFYRSGNLNLKSAFKLVPLTFIGSIIGAWTVHLMNPEVLKPLMLIMLGAVAIYTIFKKDWGSISTHKKLSGRHVIIFTFFVFAIGFYDGFLGPGTGSFLMFSLLFIGYDFLKAAGNAKLLNLGSNVGALLMFMYVGQVNYAYGFIMGIAQIAGGIVGSKFAIKKGSGYVRALFITVTCLLLAKNLYDYIQ,protein production,failed
MKALEGFTILLALVGVIPRIEGCIRVPPGVTAAKSPVDDNYVLSVNGNTQSYVPGQRYNVSLSAFSGLSFISFMLALDLESGDGDGDANALGTWEIADLAETRFSPRCPNLVENTNTNVKTRVDVFWVAPSSPGQGCILLRATVMQHRDVWFMDDGFLTKRMCEEEVDDIDTQPSIVDPCCACDEAKYELTFEGKWSRHTHPKDFPANSWRTRFSDIIGASHTLDYRFWQYGELASEGLREVAEHGSTRTLESELKDQSEHIRTIIKARGIAYPNVTGKTFAVFRVDSNHHLISLVSMVDPSPDWIVGVSGLELCLPNCSWVENKVHNLYPWDAGTDSGPSYMSADQPQVPPDVVRRIKSNFPNDPRSPFYDPTGAQMKPLATLHINRRRLYEKNCESSDSEQVPPECATNSWSRWDECTTKCGPGKQYRIREFKNPALASRHRCNNALREEKNCVGHKCAGFNEETAEGGEPEVAPSPGSSDDPQCGLSDWSEWSSCTVTCGTGEMTRSRHYLNKKAKKKCQKASRARLHETKICEAMECGGDIENEGGAGEPEEEQAGGDGGGSAEKRSIFRNFESYSQHREDYIPPVCGVTPWSDFSPCMGPCGGHGKRQRIRKVWNNNQVYGVTDPNDDGQDPCRHIKLHEEVNCTNPSCDTIVPGFCYDELTDSPCRDNDVANFWYYDHVSDQCAIYWSDRCDTNRNKFKSKEECEETCRLPRHKQELQHDGIPAIDCLVSDWVSHSCNASCGDGFQLRTRRVLRTPKYGGKPCPKHLVRLDRCYQRCDDMYSISGRGFGERRHVVRAPQPEPQDECRYSEWSAWTPCTATCGDNAVRQRTRTLMNTDLSYKCKDRVRMEKCVMMPCQLTSNDDPERW,protein production,failed
MAFSAPEPELSVVVPTLNEAETVATLLAALAAQRDVALELLLCDGGSTDGTAALVRGRAGDLPFPVTVTETPPGRGRQMNAGAAAARGATFLFLHADSIIADPLALRRGLDHLAAARRSDKRAAGHFRLRFAGDSPSPLAYRFYERKARLHRPGCTHGDQGLLIPREFFDQVGPFDEGLPILEDVRLAERIAAMGTWVLLPAEIITSARRFETEGLRERQTLNAILMNFAAIGWQQGVEELVAGYRSQDRSGRLRLGPHLARIAGLTAALPRQERLRLWYLTGGYVRGNAWQIPLFLDVRNAWRRGGDDGATPLLSLHDRWFDLLTDNPAGRAAAALMTFLWFRLTLRREMKDWPGILRTPLEHHHHHH,protein production,failed
MLEIVAAIFIVLLGSGICSCAEAALFSVPLVKVRQLSQSNNPSAIALQAIRHRMNRPIGTIVVLNNIFNIVGSITIGALATKHLQDAWMGVFSGILTLLIIVFGEIIPKTLGERYATNIALLIAIPVRFLTLIFTPLVWLIEQITNPFTHGKRVPSTNEAEIKFLATLGYKEGVIEGDEEQMIQRVFQLNDLMAVDLMTPRVIITYLLGELTLAECQQDIIQSQHTRILIVDEYIDEVLGIALKQDLLTALIQGEGYKTIAELARPAQFVPEGMRADKLLKQFQEKREHLMVVIDEYGGVAGVITLEDVVEVLTGEIVDETDKNIDLQEIARKKRQALLKQRGVAP,protein production,failed
MTNKYIKLCFIDLVDLKKMSKQNLKIVLFHGFMAREHMQRHWLCYLKKLGYSDIHLYGHLSSAEMLAKQIHSTQNSAQKLVLFGYSQGGFQAVKVAQAFEQLQLPVDLLITIAAGGKGRLLPKQWHYNPRHIPQNVVKSLNFFSLSDSLGTDRCYRDNLIQASHHDQCIENIIFDQSAQVGHIELSRCYSKQRIHGLVKQHLISRIEYELSILE,protein production,failed
